Article PMC8269012

Biological target: PwNAC11-cYFP fusion protein (Picea wilsonii)

dual-luciferase assay in tobacco: activation of the ERD1 promoter reporter on simultaneous expression of PwNAC11 and ABF3, against the control group (PwNAC11 alone 2.67-fold over empty vector): 3.04 fold
B1: ABF3 in pSPYNE (BiFC fusion) (natural protein)
chain: MGSRLNFKSFVDGVSEQQPTVGTSLPLTRQNSVFSLTFDEFQNSWGGGIGKDFGSMNMDELLKNIWTAEESHSMMGNNTSYTNISNGNSGNTVINGGGNNIGGLAVGVGGESGGFFTGGSLQRQGSLTLPRTISQKRVDDVWKELMKEDDIGNGVVNGGTSGIPQRQQTLGEMTLEEFLVRAGVVREEPQPVESVTNFNGGFYGFGSNGGLGTASNGFVANQPQDLSGNGVAVRQDLLTAQTQPLQMQQPQMVQQPQMVQQPQQLIQTQERPFPKQTTIAFSNTVDVVNRSQPATQCQEVKPSILGIHNHPMNNNLLQAVDFKTGVTVAAVSPGSQMSPDLTPKSALDASLSPVPYMFGRVRKTGAVLEKVIERRQKRMIKNRESAARSRARKQAYTMELEAEIAQLKELNEELQKKQVEIMEKQKNQLLEPLRQPWGMGCKRQCLRRTLTGPW
